# Test results published in US20250289873A1 (BROADWING BIO, published 2025).
# T1: human CFHL3-His (ATX-P-58) (human, UniProt Q02985 19-330)
# T1 construct: also called human CFHR3 protein; CFHR3; not shown: C-terminal His tag (and linker)
# T1 sequence (looked up): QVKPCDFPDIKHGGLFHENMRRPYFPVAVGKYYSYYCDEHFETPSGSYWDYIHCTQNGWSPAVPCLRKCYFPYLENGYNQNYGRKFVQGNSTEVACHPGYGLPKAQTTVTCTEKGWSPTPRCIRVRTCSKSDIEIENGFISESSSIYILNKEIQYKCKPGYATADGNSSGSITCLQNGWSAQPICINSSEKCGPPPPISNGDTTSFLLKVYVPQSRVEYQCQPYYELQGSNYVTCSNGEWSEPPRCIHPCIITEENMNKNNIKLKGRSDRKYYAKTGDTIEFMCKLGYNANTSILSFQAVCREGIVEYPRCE
# T2: Human CFHL1-Y402H-His (ATX-P-421) (human)
# T2 construct: also called human CFHL-1 (Y402H) protein
# T2 chain: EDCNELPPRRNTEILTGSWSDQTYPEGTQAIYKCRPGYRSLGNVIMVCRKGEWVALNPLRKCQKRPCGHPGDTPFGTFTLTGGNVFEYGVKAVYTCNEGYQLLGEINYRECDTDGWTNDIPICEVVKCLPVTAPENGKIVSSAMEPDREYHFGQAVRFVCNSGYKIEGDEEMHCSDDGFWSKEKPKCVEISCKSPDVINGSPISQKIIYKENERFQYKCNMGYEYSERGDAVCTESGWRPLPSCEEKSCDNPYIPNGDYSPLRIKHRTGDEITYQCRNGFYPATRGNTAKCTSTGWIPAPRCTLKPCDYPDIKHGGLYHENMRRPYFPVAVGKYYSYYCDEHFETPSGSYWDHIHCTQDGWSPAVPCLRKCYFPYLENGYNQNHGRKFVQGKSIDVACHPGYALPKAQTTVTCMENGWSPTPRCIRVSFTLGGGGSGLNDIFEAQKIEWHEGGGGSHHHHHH
# Columns and labels:
# [1] = molecular target: T1, human CFHL3-His (ATX-P-58); assay: Carterra LSA biosensor, mAb printed on chip, human CFHL3-His at 550 nM
# Protocol: (§1) Experiments were also conducted to determine the reactivity of the CFHR4 antibodies with the human CFHR3 protein (FIG. 9). The binding experiments were performed on Carterra LSA with a running buffer of PBS pH 7.40, 1% BSA, 0.05% Tween20. Antibodies were covalently printed on an HC30M chip. Chip was activated with 33 mM s-NHS and 133 mM EDC in 100 mM MES pH 5.5 for 7 minutes. Antibodies at 10 mg/ml in acetic acid buffer pH 4.5 were used for printing for 10 min. The printed chip was then quenched with 1 M ethanolamine pH 8.5 for 7 min. For the reactivity assay, ATX-P-58, human CFHL3-His, at 550 nM was tested with 5 min association followed by 15 min dissociation. Results were processed and analyzed in Carterra LSA Kinetics Software. The data was referenced with the interstitial reference spots and double-referenced to a buffer cycle, and then the responses (nm) after association were reported. Isotype control was used to determine the cutoff response for positive binding.
# [2] = molecular target: T2, Human CFHL1-Y402H-His (ATX-P-421); assay: Carterra LSA biosensor, mAb printed on chip, human CFHL1-Y402H-His at 380 nM
# Protocol: as §1, with “CFHL-1 (Y402H)” for “CFHR3”, “10).” for “9).”, “ATX-P-421,” for “ATX-P-58,”, “CFHL1-Y402H-His,” for “CFHL3-His,”, “380” for “550”
Binder,binding result [1],binding result [2]
"ATX-P-576 (antibody, human IgG1, kappa, N297A, V domains shown) VH: EVQLVESGGGLVQPGRSLRLSCTASGFTFDDYEMHWVRQAPGKGLEWVSDISRNSGRIGYADSVKGRFTISRDNAKNSLYLQMNSLRAEDTALYYCAKDIWGSGYFDYWGQGILVTVSS VL: DIQMTQSPSSVSASVGDRVTITCRTSQGIRNWLAWYQQKPGKAPKLLIYAASSLQTGGPSRFSGSGSGTDFTLTISSLQPEDFATYYCQQANSFPYTFGQGTKLEIKR",binds,binds
"ATX-P-587 (antibody, human IgG1, kappa, N297A, V domains shown) VH: QVQLQQSGPGLVKPSQTLSLTCAISGDSVSSNSAAWNWIRQSPSRGLEWLGKTYYRSKWYNYYALSVKSRITINPDTSKNQFSLHLNSVTPEDTAVYYCARDGDYYLPSPFDLWGHGTMVTVSS VL: not shown",binds,binds
"ATX-P-577 (antibody, human IgG1, kappa, N297A, V domains shown) VH: QVQLQESGPGLVKPSGTLSLTCAVSGGSISSSNWWTWVRQPPGKGLEWIGETYHDGSTNYNPSLKSRVTISVDKSKNQFSLKLSSVTAADTAVYYCLEFYFDYWGQGTLVTVSS VL: DIQMTQSPSSLSASVGDRVTITCRASQDIRNDLGWYQQKPGKVPKRLIYAASSLQSGVPSRFSGSGSGTEFTLTISSLQPEDFASYYCLQYNNYPFTLGPGTKVDIKR",binds,binds
"ATX-P-580 (antibody, human IgG1, kappa, N297A, V domains shown) VH: QVQLQESGPGLVKPSGTLSLTCAVSGGSISTSDWWTWVRQPPGKGLEWIGEIYHSGSTNYNPSLKSRVTISVDKSKNQFSLKLSSVTAADTAVYYCADWYFDLWGRGTLVTVSS VL: DIQMTQSPSSLSASVGDRVTITCRASQGIRNDLGWYQQKPGKAPKRLIYAASSLQSGVPSRFSGSGSGTEFTLAISSLQPEDFATYYCLHFNSYPFTFGPGTKVDIKR",binds,binds
"ATX-P-566 (antibody, human IgG1, kappa, N297A, V domains shown) VH: QVQLQQSGPGLVKPSQTLSLTCAISGDSVSSNSAAWNWIRQSPSRGLEWLGRTYYRSKWFNNYSVSVKSRIAINPDTSKNQFSLQLNSVTPEDTAVYYCARDLGELLDWYFDLWGRGTLVTVSA VL: EIVLTQSPGTLSLSPGDRATLSCRASQSVRNSYVAWYQQKPGQAPRLLIYGASSRATGIPDRFSGSGSGTDFSLTIGRLEPEDFVVYYCQQYGNSPLTFGGGTKVEIKR",binds,binds
"ATX-P-562 (antibody, human IgG1, kappa, N297A, V domains shown) VH: QVQLQQSGPGLVKSSQTLSLTCAISGDTVSSNSAAWNWIRQSPSRGLEWLGRTFYRSRWSAAYAASVSSRITINPDTSKNQFSLQLTSVTPADTAVYYCAREGVGSSTGFDYWGQGTLVTVSS VL: DIQMTQSPSSVSASIGDRVTITCRASKGISIWLAWYQQKPGKAPKVLISAASSLQSGAPSRFSGSGSGTDFTLTISSLQPEDFATYYCQQANSFPPTFGQGTKVEIKR",binds,binds
"ATX-P-573 (antibody, human IgG1, kappa, N297A, V domains shown) VH: QVQLQQSGPGLVKPSQTLSLTCAISGDSVSSNSAAWNWIRQSPSRGLEWLGRTYYRSKLYSDYAVSVKSRITINPDTSRNQFSLQLNSVTPEDTAVYYCAREGGYTYGYDYWGQGTLVTVSS VL: DIQMTQSPSSVSASVGDRVTITCRASQGISSWLAWYQQKPGKAPKVLIYAASSLQSGVPSRFSGSGSGTDFTLTISSLQPEDFATYYCQQANSFPPTFGPGTKVDIKR",binds,binds

# Second part, the binder after the results:
binding result [1],binding result [2],Binder
binds,binds,"ATX-P-568 (antibody, human IgG1, kappa, N297A, V domains shown) VH: EVQLVESGGGLVQPGGSLRLSCAASGFPFSSYVMSWVRQAPGKGLEWVSVISVSGGSTFYADSVRGRFTISRDNSKNTLYLQVYSLRAEDTAVYYCAKDGLAVAGFDHWGQGTLVTVSS VL: DIQMTQSPSTLSASVGDRVTITCRASQSISTWLAWYQQKPGKAPKLLIHKASGLESGVPSRFSGSGSGTEFTLTISSLQPDDFATYYCQQYNSFSLIFGGGTRVEIKR"
binds,binds,"ATX-P-564 (antibody, human IgG1, kappa, N297A, V domains shown) VH: EVQLVESGGGLVKPGGSLRLSCAASGFTFSSYTMNWVRQAPGKGLEWVSSISSSSSYTYYADSVRGRFTISRDNAKNSLYLQMSSLRAEDTAVYYCARSASIAAGMDVWGKGTTVTVSS VL: DIVMTQSPLSLPVTPGEPASISCRSSQSLLHSTGYNFLDWYLQKPGLSPQLLIYLASNRASGVPDRFSGSGSGTDFTLKISRVEAEDVGVYYCMQALQTPYTFGQGTKLEIKR"
binds,binds,"ATX-P-565 (antibody, human IgG1, kappa, N297A, V domains shown) VH: QVQLVESGGGVVQPGRSLRLSCAASGFTFNTYGIHWVRQAPGKGLEWVAVIWHDGSSKNYVDSVTGRFTISRDNSKNTVYLQMNSLRAEDTAVYYCARRGNWNYGFYYYYMDVWGKGTTVTVSS VL: DIVMTQSPLSLPVTPGEPASISCRSSQRLLHSSGYNYLDWYLQKPGQSPQLLIYLGSSRASGVPDRFSGSGSGTDFTLKISRVEAEDVGVYYCMQGLQTPPTFGQGTKVEIKR"
binds,binds,"ATX-P-579 (antibody, human IgG1, kappa, N297A, V domains shown) VH: QVQLQESGPGLVKPSGTLSLTCAVSGASISTSNWWTWVRQPPGKGLEWIGEIYHDGSTNYSPSLQSRVTISVDKSKNQFSLTLTSVTAADTAIYYCGDFYIDVWGNGTTVTVSS VL: DIQMTQSPSSLSASVGDRVTITCRASQGIRKDLGWYQQKPGKAPKRLIYTASTLQSGVPSRFSGSGSGTEFTLTISSLQPEDFATYYCLQYNNYPFTFGPGTKVDIKR"
binds,binds,"ATX-P-583 (antibody, human IgG1, kappa, N297A, V domains shown) VH: QVQLVQSGAEVKKPGASVKVSCKASGYTFTTYGISWVRQAPGQGLEWMGWISAYSGNTHYAQSLQDRVTMTTDTSTSTAYMEVRSLRSDDTAVYYCAKDEGYCSSTGCLNLFDPWGQGTLVTVSS VL: DIQMTQSPSSLSASVGDRVTITCRASQNIGSYLNWYQQKPGNAPKLLIYATSTLQSGVPSRFSGSGSGTDFTLIISSLHPEDFTVYYCQQSFIIPFTFGPGTKVDIKR"
binds,binds,"ATX-P-563 (antibody, human IgG1, kappa, N297A, V domains shown) VH: QVQLQESGPGLMKPSETLSLTCTVSGGSISSHYWSWIRQPPGKGLEWIGYIFYSGNINYNPSLKSRVTISVDTSKNQFSLKLRSVTTADTAVYYCARDRGGSYSYHFDCWGQGTLVTVSS VL: DIQMTQSPSSVSASVGDRVTITCRASQSFAGWLAWYQQKPGKAPKLLIYAASTLQSGVPSRFSGSGSGTDFTLTISSLQPEDFATYYCQQANSFPLTFGGGTKVEIKR"
binds,binds,"ATX-P-574 (antibody, human IgG1, kappa, N297A, V domains shown) VH: EVQLVESGGGLVQRGGSLRLSCVASGFTFSSYAMSWVRQAPGKGLEWVSVISGSGGTTYYADSVKGRFTISRDDSKKTLYLQMNSLRAEDTAVYYCAKRGDYGDYMDVWGKGTTVTVSS VL: DIQMTQSPSSVSASVGDRVTITCRASQGITTWLAWYQQKPGKAPKLLIFGASSLESGVPSRFSGSGSGTDFTLTISSLQPEDFATYYCQQANSFPWTFGQGTKVEIKR"
binds,binds,"ATX-P-578 (antibody, human IgG1, kappa, N297A, V domains shown) VH: EVQLVESGGGLVQPGGSLRLSCAASGFTFSRYSMNWVRQAPGKGLEWVSYISSSSSTIFHADSVKGRFTISRDNAKNSLYLQMNSLRDEDTAVYYCARGNWNYYYMDVWGKGTTVTVSS VL: DIQMTQSPSTLSASVGDRVTISCRASQSVNSWLAWYQQKPGKAPKLLIYKASNLEGGVPSSFSGSGSGTEFTLTISSLQPDDFATYYCQQYDTSWTFGQGTKVEIKR"
